Reference: patent US20210347894A1 (JIANGSU HANSOH PHARMACEUTICAL GROUP, published 2021)

Columns and labels:
[1] = molecular target: T1, human 4Ig-B7H3 antigen (SinoBiological cat#11188-H08H) (human, UniProt Q5ZPR3 29-461); assay: SPR (Biacore T200), antibody captured on Protein A chip, antigen flowed over, 1:1 Langmuir fit
T1 construct: Commercial product; The entry as printed is the B7H3 extracellular region (4Ig form) followed by a His-tag; also called Human 41g-B7H3; human B7H3 antigen for detection
T1 sequence: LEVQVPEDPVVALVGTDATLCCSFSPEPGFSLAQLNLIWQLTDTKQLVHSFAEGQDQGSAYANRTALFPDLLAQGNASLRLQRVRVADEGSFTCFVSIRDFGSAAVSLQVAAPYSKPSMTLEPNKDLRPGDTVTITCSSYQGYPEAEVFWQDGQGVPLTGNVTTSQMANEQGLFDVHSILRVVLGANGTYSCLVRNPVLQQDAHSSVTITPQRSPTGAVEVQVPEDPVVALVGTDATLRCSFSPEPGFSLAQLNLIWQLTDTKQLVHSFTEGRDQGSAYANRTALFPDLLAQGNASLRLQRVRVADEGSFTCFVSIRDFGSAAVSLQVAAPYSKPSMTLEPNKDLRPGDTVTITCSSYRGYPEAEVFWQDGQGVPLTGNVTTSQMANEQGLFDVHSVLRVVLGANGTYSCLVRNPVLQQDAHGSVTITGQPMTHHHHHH
Excerpt: (§1) A biosensor chip Protein A (Cat.#29127556, GE) was used to affinity capture a certain amount of antibody/ADC to be tested. Series diluted human 2Ig-B7H3 antigen (Cat.#1949-B3-050/CF, R&D) and human 4Ig-B7H3 antigen (Cat.#11188-H08H, Sino Biological) were flowed through the surface of the chip. Real-time reaction signal was detected by using Biacore instrument (Biacore T200, GE) to obtain the association and dissociation curves. After completion of each cycle of dissociation, the biochip was washed and regenerated with glycine-hydrochloric acid regeneration solution (pH 1.5) (Cat.# BR-1003-54, GE). The buffer used in the experiment was HBS-EP buffer solution (pH 7.4) (Cat.# BR-1001-88, GE).
(§2) The experimental data was fitted with BIAevaluation version 4.1 GE software in a (1:1) Langmuir model to obtain affinity values.

[2] = molecular target: T2, human 2Ig-B7H3 antigen (R&D cat#1949-B3-050/CF) (human, UniProt Q5ZPR3 29-245); assay: as above
T2 construct: Commercial product; The entry as printed is the B7H3 extracellular region (2Ig form) followed by a His-tag; also called human B7H3 antigen for screening and detection
T2 sequence: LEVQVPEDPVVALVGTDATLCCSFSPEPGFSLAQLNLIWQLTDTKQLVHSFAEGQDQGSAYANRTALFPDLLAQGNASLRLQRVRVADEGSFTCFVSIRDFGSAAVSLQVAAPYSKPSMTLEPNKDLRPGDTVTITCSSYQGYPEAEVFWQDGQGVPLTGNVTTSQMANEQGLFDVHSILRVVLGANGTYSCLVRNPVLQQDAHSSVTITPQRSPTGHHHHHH
Excerpt: as §1, §2

[3] = molecular target: T1, human 4Ig-B7H3 antigen (SinoBiological …); assay: SPR (Biacore T200), ADC captured on Protein A chip, antigen flowed over, 1:1 Langmuir fit
Excerpt: as §1, §2

Binder	Kd [1] [nM]	Kd [2] [nM]	Kd [3] [nM]
h1702 antibody (antibody, human IgG1, lambda, Fully human IgG1/lambda full-length antibody from a phage library, expressed in HEK293E cells; also called B7H3 antibody h1702; anti-B7H3 antibody) heavy: not shown light: QTVVTQEPSFSVSPGGTVTLTCGLSSGSVSTSHYPSWYQQTPGQAPRMLIYNTNTRSSGVPDRFSGSILGNKAALTITGAQADDESDYYCAIHVDRDIWVFGGGTKLTVLGQPKANPTVTLFPPSSEELQANKATLVCLISDFYPGAVTVAWKADGSPVKAGVETTKPSKQSNNKYAASSYLSLTPEQWKSHRSYSCQVTHEGSTVEKTVAPTECS	8.55	797	
ADC-2 (antibody 1702DS conjugated with compound 5-A, formula FADC-2, n=7.24) (antibody, human IgG1, lambda, linker-drug compound 5-A (maleimide-GGFG-exatecan analog) coupled after TCEP reduction of the antibody's disulfide bonds; average n=7.24 per antibody; positions not given, Antibody-drug conjugate; also called B7H3-ADC) heavy: not shown light: DTVVTQEPSFSVSPGGTVTLTCGLSSGSVSTSHYPSWYQQTPGQAPRMLIYNTNTRSSGVPDRFSGSILGNKAALTITGAQADDESDYYCAIHVDRDIWVFGGGTKLTVLGQPKANPTVTLFPPSSEELQANKATLVCLISDFYPGAVTVAWKADGSPVKAGVETTKPSKQSNNKYAASSYLSLTPEQWKSHRSYSCQVTHEGSTVEKTVAPTEC			7.55
